Reference: US20060183161A1

Target: IL-1 receptors on fibroblasts (human) (UniProt P14778)
Assay: cell-based or functional assay

UniProt P14778, sequence (P14778 18-569): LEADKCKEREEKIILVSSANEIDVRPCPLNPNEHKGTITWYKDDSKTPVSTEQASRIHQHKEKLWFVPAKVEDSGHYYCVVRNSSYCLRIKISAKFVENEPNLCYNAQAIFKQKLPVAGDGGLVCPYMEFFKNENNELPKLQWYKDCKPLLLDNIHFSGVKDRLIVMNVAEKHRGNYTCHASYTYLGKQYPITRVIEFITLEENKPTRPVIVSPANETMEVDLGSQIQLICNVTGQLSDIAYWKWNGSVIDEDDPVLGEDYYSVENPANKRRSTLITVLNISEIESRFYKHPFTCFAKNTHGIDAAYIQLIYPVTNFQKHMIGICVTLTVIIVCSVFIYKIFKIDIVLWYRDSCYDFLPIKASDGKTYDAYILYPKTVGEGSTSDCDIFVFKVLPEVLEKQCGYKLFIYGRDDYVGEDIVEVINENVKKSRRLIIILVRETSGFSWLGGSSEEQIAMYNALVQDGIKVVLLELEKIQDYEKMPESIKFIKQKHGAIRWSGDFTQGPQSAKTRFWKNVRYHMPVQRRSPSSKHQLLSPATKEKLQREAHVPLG

## recombinant human IL-1 receptor antagonist (rhIL-1ra) (from UniProt P18510 28-177) (ligand)
  IL-6 production from fibroblasts in response to 0.1 nM IL-1b (ELISA): 95 % reduction

## rhIL-1L1 Form B (from UniProt Q9UBH0 1-155) (ligand)
  IL-1-like activity: IL-6 secretion by fibroblasts and endothelial cells (ELISA) (% of the activity of 0.1 nM IL-1b): < 1
